Reference: US20250066503A1, “CELL INJURY INDUCING THERAPEUTIC DRUG FOR USE IN CANCER THERAPY” (CHUGAI SEIYAKU KABUSHIKI KAISHA, priority 2016, published 2025)

Legend:
[1] = system: MKN74, FU-97, SNU-1, SCC152, KYSE70, PC-10, HuH-7, TOV-21G, RMG-1 and STM-03 xenograft tumors; assay: In vivo drug efficacy, NOD scid/T cell-injected model, xenograft tumors of various cancer types; design: species or system NOD scid mice; conditions: 1 mg/kg once through the tail vein; compared to the vehicle-administered group
Description: (§1) Methods called an NOD scid/T cell-injected model, a humanized NOG mouse model, and a human CD3εδγ gene-modified mouse model were used in the in vivo drug efficacy evaluation. Assay using an NOD scid/T cell-injected model was performed as follows. […] T cells expanded by culturing human PBMCs in vitro were injected into the NOD scid mice with confirmed tumor establishment. The mice were treated by administering bispecific antibody-38 and bispecific antibody-30, -31, -32, or -33. Assay using a humanized NOG mouse model was performed as follows. CD34-positive hematopoietic stem cells derived from umbilical cord blood were transplanted into NOG mice by tail vein injection. Human T cells are constantly supplied in the mice, which are called humanized NOG mice. The PC-10 cell line was transplanted into humanized NOG mice. The humanized NOG mice with confirmed establishment of PC-10 tumor were treated by administering antibody-38. Assay using a human CD3εδγ gene-modified mouse model was performed as follows. Cells of mouse-derived cell line forced to express human GPC3 were transplanted into a human CD3εδγ gene-modified mouse model, which had been prepared according to Reference Example 10. The human CD3εδγ gene-modified mice with confirmed tumor establishment were treated by administering antibody-38. […]

[2] = system: LLC1/hGPC3 syngeneic tumor; assay: In vivo drug efficacy, human CD3εδγ gene-modified mouse model; design: species or system human CD3εδγ gene-modified mice; conditions: 5 mg/kg Day 11 and Day 14, compared to solvent group or anti-human GPC3, anti-mouse CTLA-4, PD-1, PD-L1 antibodies at 25 mg/kg
Description: as §1

[3] = system: MKN45 and NCI-H446 tumor tissues; assay: Comprehensive RNA analysis of tumor tissues using nCounter; format: in vivo, humanized NOG mice; conditions: in combination with paclitaxel or capecitabine; compared to antibody-38 or the chemotherapeutic agent alone
Description: RNA was extracted from tumor samples after administration of paclitaxel, cisplatin, or capecitabine and antibody-38. Comprehensive RNA analysis using nCounter, tumor infiltrating lymphocyte (TIL) analysis, and pathological analysis were performed as follows.
(§2) The tumor samples were prepared as follows. The tumor samples when antibody-38 was used in combination with a chemotherapeutic agent in the humanized NOG mouse model were prepared by the procedure described below. 2.5 Gy of X ray was irradiated to NOG mice (In-Vivo Science Inc., Y). On the following day, 1×10^5 CD34-positive hematopoietic stem cells which are derived from umbilical cord blood were transplanted into the NOG mice by tail vein injection. After 16 to 20 weeks, each of human cancer cell lines (MKN45 and NCI-H446) was mixed with Matrigel™ Basement Membrane Matrix, and transplanted subcutaneously into the humanized NOG mice. The day of transplantation was defined as Day 0.
When tumor was established, the mice were separated into groups based on tumor size and body weight. Antibody-38 and the pharmaceutical agents for use in combination were administered according to the dose and dosing regimen described in Table 21. […]
RNA analysis was performed as follows. RNA was extracted (miRNeasy Mini Kit, QIAGEN) from the above-described tumor samples and the RNA concentrations were determined (NanoDrop, Thermo Fisher Scientific). […]

NCI-H446 tumor tissues = assay: Tumor infiltrating lymphocyte (TIL) analysis of tumor tissues; format: in vivo, humanized NOG mice; conditions: in combination with a chemotherapeutic agent, paclitaxel or capecitabine; sixth day after antibody-38 administration; compared to either alone
Description: as §2
When tumor was established, the mice were separated into groups based on tumor size and body weight. Antibody-38 and the pharmaceutical agents for use in combination were administered according to the dose and dosing regimen described in Table 21. The mice were euthanized at the timing described in Table 21, and tumor was excised and preserved for use in tumor infiltrating lymphocyte (TIL) analysis, pathological analysis, or RNA analysis.
TIL analysis was performed as follows. Tumor tissues which were dissected from mice transplanted with NCI-H446 described in Table 21 on the sixth day after antibody-38 administration were dissociated into cells by enzyme treatment using gentle MACS™ Octo Dissociator. […]

B1: antibody-38: anti-human CD3ε chain and anti-human GPC3 bispecific antibody; H chains SEQ ID NO: 385 and 402, common L chains SEQ ID NO: 410 (antibody)
heavy 1: QVQLVQSGAEVKKPGASVTVSCKASGYTFTDYEMHWIRQPPGEGLEWIGAIDGPTPDTAYSEKFKGRVTLTADKSTSTAYMELSSLTSEDTAVYYCTRFYSYTYWGQGTLVTVSSASTKGPSVFPLAPCSRSTSESTAALGCLVKDYFPEPVTVSWNSGALTSGVHTFPAVLQSSGLYSLSSVVTVPSSSLGTQTYTCNVDHKPSNTKVDKRVESKYGPPCPPCPAPEFRGGPKVFLFPPKPKDTLMISRTPEVTCVVVDVSQEDPEVQFNWYVDGVEVHNAKTKPREEQFASTYRVVSVLTVLHQDWLNGKEYKCKVSNKGLPSSIEKTISKAKGQPREPQVYTLPPSQEEMTKNQVSLTCLVKGFYPSDIAVEWESNGQPENNYKTTPPVLDSDGSFFLYSKLTVDKSRWQEGNVFSCSVMHEALHNHYTQESLSLSP
heavy 2: QVQLVESGGGVVQPGGSLRLSCAASGFTFSNAWMHWVRQAPGKGLEWVAQIKDKSQNYATYVAESVKGRFTISRADSKNSIYLQMNSLKTEDTAVYYCRYVHYAAGYGVDIWGQGTTVTVSSASTKGPSVFPLAPCSRSTSESTAALGCLVKDYFPEPVTVSWNSGALTSGVHTFPAVLQSSGLYSLSSVVTVPSSSLGTKTYTCNVDHKPSNTKVDKRVESKYGPPCPPCPAPEFRGGPKVFLFPPKPKDTLMISRTPEVTCVVVDVSQEDPEVQFNWYVDGVEVHNAKTKPREEQFASTYRVVSVLTVLHQDWLNGKEYKCKVSNKGLPSSIEKTISKAKGQPREPQVYTLPPSQKEMTKNQVSLTCLVKGFYPSDIAVEWESNGQPENNYKTTPPVLDSDGSFFLYSKLTVDKSRWQEGNVFSCSVMHEALHNHYTQKSLSLSP
light: DIVMTQSPLSLPVTPGEPASISCRSSQPLVHSNRNTYLHWYQQKPGQAPRLLIYKVSNRFSGVPDRFSGSGSGTDFTLKISRVEAEDVGVYYCGQGTQVPYTFGQGTKLEIKRTVAAPSVFIFPPSDEQLKSGTASVVCLLNNFYPREAKVQWKVDNALQSGNSQESVTEQDSKDSTYSLSSTLTLSKADYEKHKVYACEVTHQGLSSPVTKSFNRGEC
modifications: An artificially generated sequence
anti-tumor effect [1]: evident anti-tumor effect
anti-tumor effect [2]: evident anti-tumor effect
expressions of genes involved in the progress of cell cycle [3]: suppressed
expressions of immune cell markers, chemokines, cytokines, genes involved in cell death, genes involved in cell cycle regulation [3]: increased
cell populations expressing T cell markers, activated T cell markers, and proteins involved in cytotoxic activity (NCI-H446 tumor tissues): increased
